Experimental data as given in patent US20240391984A1.
Substitutions are numbered along the chain they refer to. In names and notes the source's numbering stands.

B1: pAM114 (wt B3 domain of Protein L) (protein)
chain: PKEEVTIKANLIYADGKTQTAEFKGTFEEATAEAYRYADLLAKENGKYTVDVADKGYTLNIKFAGKEKTPEE
B2: pAM246 (Protein L C3b domain; N10H, N45H, N60Q) (designed binder)
chain: PKEEVTIKVHLIFADGKIQTAEFKGTFEEATAKAYAYADLLAKEHGEYTADLEDGGYTIQIKFAGKETPETPEE
B3: pAM245 (Protein L C3 domain; H, H, Q at positions 10, 45, 60) (designed binder)
chain: B2 chain with D39N, Y57N
B4: pAM241 (Protein L C1 domain; H, H, Q at positions 10, 45, 60) (designed binder)
chain: PEEEVTIKAHLIFADGSTQNAEFKGTFAKAVSDAYAYADALKKDHGEYTVDVADKGLTLQIKFAGKKEKPEE
B5: pAM255 (Protein L C1 domain; H, H, Y at positions 10, 45, 60) (designed binder)
chain: B4 chain with Q60Y
B6: pAM243 (Protein L C2 domain; H, H, Q at positions 10, 45, 60) (designed binder)
chain: B2 chain with I18T, Y57N
B7: pAM259 (Protein L C3 domain; H, H, Y at positions 10, 45, 60) (designed binder)
chain: B2 chain with D39N, Y57N, Q60Y
B8: pAM257 (Protein L C2 domain; H, H, Y at positions 10, 45, 60) (designed binder)
chain: B2 chain with I18T, Y57N, Q60Y
B9: pAM240 (Protein L B5b domain; H, H, Q at positions 10, 45, 60) (designed binder)
chain: KEQVTIKEHIYFEDGTVQTATFKGTFAEATAEAYRYADLLSKEHGKYTADLEDGGYTIQIRFAGKEEPEE
B10: pAM254 (Protein L B5b domain; H, H, Y at positions 10, 45, 60) (designed binder)
chain: B9 chain with Q59Y
B11: pAM247 (Protein L C4 domain; N10H, N45H, N60Q) (designed binder)
chain: PKEEVTIKVHLIFADGKTQTAEFKGTFEEATAEAYRYADLLAKVHGEYTADLEDGGYTIQIKFAGKEQPGENPG
B12: pAM249 (Protein L B1 domain; N10H, N45H, N60Y) (designed binder)
chain: SEEEVTIKAHLIFANGSTQTAEFKGTFEKATSEAYAYADTLKKDHGEYTVDVADKGYTLYIKFAGKEKTPEE
B13: pAM235 (Protein L B1 domain; N10H, N45H, N60Q) (designed binder)
chain: B12 chain with Y60Q
B14: pAM238 (Protein L B3 domain; N10H, N45H, N60Q) (designed binder)
chain: B1 chain with N10H, N45H, N60Q

Biological target: polyclonal IgG (Gammanorm, Octapharma, Sweden)
Assay: SPR (Biacore 8K+), variant amine-coupled to CM5, Gammanorm as analyte, 1:1 kinetic fit

Q: Which Kd does the source give for B1 here?
A: The Kd was 12 nM.

Biological target: polyclonal IgG (Gammanorm, Octapharma, Sweden)
Assay: SPR (Biacore 8K+), variant amine-coupled to CM5, Gammanorm as analyte, steady state fit

Q: Which Kd does the source give for B1 here?
A: The Kd was 45 nM.

Biological target: polyclonal IgG (Gammanorm, Octapharma, Sweden)
Assay: SPR (Biacore 8K+), steady state fit; summary table, differs from Table 10

Q: With B2 as the binder, how does the Kd read?
A: Its Kd is 47 nM.

Q: For B3, which Kd is on record?
A: Its Kd is 118 nM.

Biological target: polyclonal IgG (Gammanorm, Octapharma, Sweden)
Assay: SPR (Biacore 8K+), variant amine-coupled to CM5, Gammanorm as analyte, 1:1 kinetic fit
Remark: another data set of the same source

Q: Which Kd does the source give for B4 here?
A: The Kd was 87 nM.

Q: B5 was tested. Which Kd did it give?
A: Its Kd is 146 nM.

Q: Which Kd does the source give for B2 here?
A: The Kd was 17 nM.

Q: B6 was tested. Which Kd did it give?
A: Its Kd is 39 nM.

Q: Which Kd does the source give for B7 here?
A: Its Kd is 55 nM.

Q: B3 was tested. Which Kd did it give?
A: Its Kd is 65 nM.

Q: For B8, which Kd is on record?
A: The Kd was 47 nM.

Q: Which Kd does the source give for B9 here?
A: The Kd was 15 nM.

Q: Which Kd does the source give for B10 here?
A: Its Kd is 7 nM.

Q: How did the Kd turn out when B11 was run?
A: Its Kd is 9 nM.

Q: Which Kd does the source give for B12 here?
A: The Kd was 29 nM.

Q: B13 was tested. Which Kd did it give?
A: The Kd was 42 nM.

Q: For B1, which Kd is on record?
A: The Kd was 11 nM.

Q: Which Kd does the source give for B14 here?
A: Its Kd is 25 nM.

Biological target: polyclonal IgG (Gammanorm, Octapharma, Sweden)
Assay: SPR (Biacore 8K+), 1:1 kinetic fit; summary table, differs from Table 10

Q: With B2 as the binder, how does the Kd read?
A: Its Kd is 15 nM.

Q: For B3, which Kd is on record?
A: The Kd was 54 nM.

Biological target: polyclonal IgG (Gammanorm, Octapharma, Sweden)
Assay: SPR (Biacore 8K+), variant amine-coupled to CM5, Gammanorm as analyte, steady state fit
Remark: another data set of the same source

Q: How did the Kd turn out when B4 was run?
A: The Kd was 187 nM.

Q: B5 was tested. Which Kd did it give?
A: The Kd was 324 nM.

Q: For B2, which Kd is on record?
A: The Kd was 49 nM.

Q: B6 was tested. Which Kd did it give?
A: Its Kd is 83 nM.

Q: How did the Kd turn out when B7 was run?
A: Its Kd is 120 nM.

Q: How did the Kd turn out when B3 was run?
A: The Kd was 134 nM.

Q: Which Kd does the source give for B8 here?
A: The Kd was 98 nM.

Q: B9 was tested. Which Kd did it give?
A: Its Kd is 79 nM.

Q: With B10 as the binder, how does the Kd read?
A: Its Kd is 41 nM.

Q: For B11, which Kd is on record?
A: The Kd was 38 nM.

Q: How did the Kd turn out when B12 was run?
A: Its Kd is 79 nM.

Q: Which Kd does the source give for B13 here?
A: The Kd was 101 nM.

Q: With B1 as the binder, how does the Kd read?
A: The Kd was 46 nM.

Q: Which Kd does the source give for B14 here?
A: The Kd was 82 nM.
